pKd: −log10 of the molar value.

The target of this assay is MvaT F36D/M44D (P. aeruginosa) (UniProt Q9HW86). Description: ITC; gp4 injected into MvaT F36D/M44D in the cell; 20 C; 20 mM Bis-Tris pH 6, 50 mM KCl, 16 mM MgCl2; one set of sites model.

“gp4 of Pseudomonas phage LUZ24 (natural protein)” had a pKd of 6.77 and a stoichiometry N of 0.56.
In turn, gp4 K42E/K45E (natural protein) had a negative logarithm of the Kd (pKd) of 5.87 and a stoichiometry N of 0.52.

Values taken from paper PMC8501957.
